Test results: patent publication US20050282743A1, “Molecular interactions in cells” (Arbor Vita Corporation, priority 2001, published 2005)

T1: GST-AIPC PDZ domain 1 (Homo sapiens (Human)), O15018
T1 chain: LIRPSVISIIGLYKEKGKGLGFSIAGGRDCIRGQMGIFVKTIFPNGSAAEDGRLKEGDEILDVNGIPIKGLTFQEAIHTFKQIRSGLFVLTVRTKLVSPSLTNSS

T2: GST-DLG1 PDZ domain 2 (Homo sapiens), Q12959
T2 chain: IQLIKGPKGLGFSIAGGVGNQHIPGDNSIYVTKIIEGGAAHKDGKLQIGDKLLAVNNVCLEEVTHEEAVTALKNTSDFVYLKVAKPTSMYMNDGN

T3: GST-INADL PDZ domain 8 (Homo sapiens (Human)), Q8NI35
T3 chain: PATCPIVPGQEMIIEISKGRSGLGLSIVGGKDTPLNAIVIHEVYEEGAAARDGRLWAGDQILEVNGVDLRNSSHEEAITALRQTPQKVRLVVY

T4: GST-KIAA0807(S) PDZ domain 1 (Homo sapiens (Human)), Q6P0Q8
T4 chain: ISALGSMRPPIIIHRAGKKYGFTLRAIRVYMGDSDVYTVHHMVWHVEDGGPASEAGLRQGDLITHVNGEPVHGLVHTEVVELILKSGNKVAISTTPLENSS

T5: GST-KIAA0973 PDZ domain 1 (Homo sapiens (Human)), Q9Y2H9
T5 chain: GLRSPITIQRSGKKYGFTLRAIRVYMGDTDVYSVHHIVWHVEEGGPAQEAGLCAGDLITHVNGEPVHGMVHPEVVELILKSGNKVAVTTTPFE

T6: GST-KIAA1526 PDZ domain 1 (Homo sapiens (Human)), Q9P202
T6 chain: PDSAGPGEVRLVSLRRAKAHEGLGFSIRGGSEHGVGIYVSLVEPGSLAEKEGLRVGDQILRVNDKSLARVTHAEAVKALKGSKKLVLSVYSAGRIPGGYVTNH

T7: GST-KIAA1634 PDZ domain 2 (Homo sapiens (Human)), Q5TCQ9
T7 chain: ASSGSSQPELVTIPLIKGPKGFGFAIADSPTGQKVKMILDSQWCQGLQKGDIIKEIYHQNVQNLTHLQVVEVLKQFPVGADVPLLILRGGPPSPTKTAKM

T8: GST-MINT1 PDZ domain 1 (Mus musculus (Mouse)), B2RUJ5
T8 chain: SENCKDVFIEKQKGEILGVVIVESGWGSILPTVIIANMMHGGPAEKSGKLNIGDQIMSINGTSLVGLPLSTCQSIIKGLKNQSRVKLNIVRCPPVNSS

T9: GST-MUPP1 PDZ domain 11 (Homo sapiens (Human)), O75970
T9 chain: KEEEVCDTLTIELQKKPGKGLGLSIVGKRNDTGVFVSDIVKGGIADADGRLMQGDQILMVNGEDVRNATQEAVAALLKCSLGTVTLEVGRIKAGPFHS

T10: GST-MUPP1 PDZ domain 13 (Homo sapiens (Human)), O75970
T10 chain: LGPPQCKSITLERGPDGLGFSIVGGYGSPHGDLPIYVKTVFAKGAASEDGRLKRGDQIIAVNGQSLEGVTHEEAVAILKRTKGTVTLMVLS

T11: GST-MUPP1 PDZ domain 5 (Homo sapiens (Human)), O75970
T11 chain: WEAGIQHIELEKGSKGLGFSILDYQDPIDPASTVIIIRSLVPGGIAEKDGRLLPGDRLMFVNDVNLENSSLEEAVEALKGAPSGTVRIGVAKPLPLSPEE

T12: GST-NeDLG PDZ domain 3 (Mus musculus (Mouse)), P70175
T12 chain: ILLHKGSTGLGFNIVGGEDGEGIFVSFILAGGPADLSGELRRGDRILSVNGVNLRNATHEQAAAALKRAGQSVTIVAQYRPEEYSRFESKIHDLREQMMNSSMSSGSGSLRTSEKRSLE

T13: GST-NeDLG PDZ domains 1, 2, Q92796
T13 chain: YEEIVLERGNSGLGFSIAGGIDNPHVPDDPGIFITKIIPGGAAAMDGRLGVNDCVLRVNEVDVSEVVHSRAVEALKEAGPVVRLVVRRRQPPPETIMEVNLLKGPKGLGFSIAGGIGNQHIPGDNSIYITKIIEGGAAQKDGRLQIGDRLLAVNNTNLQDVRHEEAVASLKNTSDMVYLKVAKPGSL

T14: GST-PTPL1 PDZ domain 4 (Homo sapiens (Human)), Q12923
T14 chain: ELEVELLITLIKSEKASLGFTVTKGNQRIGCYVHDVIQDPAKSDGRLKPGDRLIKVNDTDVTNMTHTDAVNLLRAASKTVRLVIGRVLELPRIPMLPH

T15: GST-ZO-3 PDZ domain 3 (Homo sapiens (Human)), O95049
T15 chain: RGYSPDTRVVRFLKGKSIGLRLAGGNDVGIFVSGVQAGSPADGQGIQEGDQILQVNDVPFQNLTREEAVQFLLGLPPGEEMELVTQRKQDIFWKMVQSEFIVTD

B1: TAX (peptide)
peptide: QISPGGLEPPSEKHFRETEV
modifications: not checked
B2: a-actinin 2 (peptide)
peptide: VPGALDYAAFSSALYGESDL
modifications: not checked
B3: NMDA Glutamate Receptor 2C (cysteine-free) (peptide)
peptide: TQGFPGPATWRRISSLESEV
modifications: not checked
B4: CSPG4 (chondroitin sulfae proteoglycan 4, melanoma-associated) (peptide)
peptide: ELLQFCRTPNPALKNGQYWV
modifications: not checked
B5: MINT-1 (peptide)
peptide: KTMPAAMYRLLTAQEQPVYI
modifications: not checked
B6: catenin - delta 2 (peptide)
peptide: PYSELNYETSHYPASPDSWV
modifications: not checked
B7: ephrin B2 (peptide)
peptide: ILNSIQVMRAQMNQIQSVEV
modifications: not checked
B8: alpha-2A Adrenergic receptor (peptide)
peptide: HDFRRAFKKILARGDRKRIV
modifications: not checked
B9: AdenoE4 typ9 (peptide)
peptide: VGTLLLERVIFPSVKIATLV
modifications: not checked
B10: KIA 1481 (peptide)
peptide: PIPAGGCTFSGIFPTLTSPL
modifications: not checked
B11: LPAP (peptide)
peptide: AWDDSARAAGGQGLHVTAL
modifications: not checked

Biological target: T1, GST-AIPC PDZ domain 1 (Homo sapiens …)
Test: G' assay
Note: key of the grades not given here.

| Binder | Classification [A450 class] |
| --- | --- |
| B1 | 1 |
| B2 | 2 |
| B3 | 3 |
| B4 | 5 |
| B5 | 1 |
| B6 | 2 |
| B7 | 2 |
| B8 | 2 |

Biological target: GST-Atrophin-1 Interacting Protein PDZ domain 1 (Rattus norvegicus (Rat)), O88382
Test: G' assay

Sequence of GST-Atrophin-1 Interacting Protein PDZ domain 1 (Rattus norvegicus (Rat)), O88382 (O88382 408-511): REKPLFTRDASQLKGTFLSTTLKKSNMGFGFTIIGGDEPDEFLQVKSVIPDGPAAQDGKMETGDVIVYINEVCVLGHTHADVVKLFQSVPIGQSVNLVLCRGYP

| Binder | Classification [A450 class] |
| --- | --- |
| B1 | 5 |
| B3 | 5 |
| B4 | 1 |
| B9 | 5 |

Biological target: GST-BAI-1 Associated Protein PDZ domain 4 (Homo sapiens (Human)), Q96QZ7
Test: G' assay

Sequence of GST-BAI-1 Associated Protein PDZ domain 4 (Homo sapiens (Human)), Q96QZ7 (Q96QZ7 other isoform, or with tags, fused parts or gaps): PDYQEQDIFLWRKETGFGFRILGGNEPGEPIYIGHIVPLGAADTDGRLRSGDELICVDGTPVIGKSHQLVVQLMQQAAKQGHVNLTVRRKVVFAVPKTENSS

| Binder | Classification [A450 class] |
| --- | --- |
| B1 | 2 |
| B3 | 3 |
| B10 | 1 |
| B9 | 5 |

Biological target: GST-BAI-1 Associated Protein PDZ domain 5 (Homo sapiens (Human)), Q96QZ7
Test: G' assay

Sequence of GST-BAI-1 Associated Protein PDZ domain 5 (Homo sapiens (Human)), Q96QZ7 (Q96QZ7 988-1099): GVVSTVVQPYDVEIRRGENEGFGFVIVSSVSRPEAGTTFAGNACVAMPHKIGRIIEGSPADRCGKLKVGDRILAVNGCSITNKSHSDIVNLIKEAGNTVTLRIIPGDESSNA

| Binder | Classification [A450 class] |
| --- | --- |
| B1 | 5 |
| B3 | 4 |
| B10 | 3 |

Biological target: T2, GST-DLG1 PDZ domain 2 (Homo sapiens), …
Test: G' assay

| Binder | Classification [A450 class] |
| --- | --- |
| B1 | 5 |
| B2 | 1 |
| B3 | 5 |
| B6 | 2 |
| B9 | 5 |

Biological target: GST-DLG1 PDZ domains 1, 2 (Homo sapiens), Q12959
Test: G' assay

| Binder | Classification [A450 class] |
| --- | --- |
| B1 | 5 |
| B2 | 1 |
| B3 | 5 |
| B6 | 3 |
| B9 | 5 |

Biological target: T3, GST-INADL PDZ domain 8 (Homo sapiens …)
Test: G' assay

| Binder | Classification [A450 class] |
| --- | --- |
| B3 | 1 |
| B4 | 3 |
| B5 | 1 |
| B6 | 2 |
| B9 | 2 |

Biological target: T4, GST-KIAA0807(S) PDZ domain 1 (Homo …)
Test: G' assay

| Binder | Classification [A450 class] |
| --- | --- |
| B1 | 5 |
| B2 | 5 |
| B3 | 5 |
| B4 | 1 |
| B5 | 5 |
| B6 | 3 |
| B11 | 5 |
| B7 | 2 |
| B10 | 5 |
| B8 | 1 |
| B9 | 3 |

Biological target: T5, GST-KIAA0973 PDZ domain 1 (Homo sapiens …)
Test: G' assay

| Binder | Classification [A450 class] |
| --- | --- |
| B2 | 2 |
| B3 | 1 |
| B7 | 2 |
| B10 | 2 |

Biological target: T6, GST-KIAA1526 PDZ domain 1 (Homo sapiens …)
Test: G' assay

| Binder | Classification [A450 class] |
| --- | --- |
| B1 | 3 |
| B2 | 1 |
| B3 | 3 |
| B6 | 2 |
| B11 | 1 |
| B7 | 3 |
| B10 | 2 |
| B8 | 4 |

Biological target: T7, GST-KIAA1634 PDZ domain 2 (Homo sapiens …)
Test: G' assay

| Binder | Classification [A450 class] |
| --- | --- |
| B1 | 2 |
| B3 | 3 |
| B7 | 1 |
| B10 | 1 |
| B9 | 5 |

Biological target: T8, GST-MINT1 PDZ domain 1 (Mus musculus …)
Test: G' assay

| Binder | Classification [A450 class] |
| --- | --- |
| B4 | 2 |
| B5 | 3 |
| B7 | 1 |
| B8 | 1 |

Biological target: T9, GST-MUPP1 PDZ domain 11 (Homo sapiens …)
Test: G' assay

| Binder | Classification [A450 class] |
| --- | --- |
| B4 | 5 |
| B5 | 5 |
| B7 | 2 |
| B9 | 5 |

Biological target: T10, GST-MUPP1 PDZ domain 13 (Homo sapiens …)
Test: G' assay

| Binder | Classification [A450 class] |
| --- | --- |
| B1 | 5 |
| B3 | 5 |
| B8 | 1 |

Biological target: T11, GST-MUPP1 PDZ domain 5 (Homo sapiens …)
Test: G' assay

| Binder | Classification [A450 class] |
| --- | --- |
| B3 | 1 |
| B4 | 5 |
| B5 | 2 |

Biological target: T12, GST-NeDLG PDZ domain 3 (Mus musculus …)
Test: G' assay

| Binder | Classification [A450 class] |
| --- | --- |
| B1 | 5 |
| B3 | 1 |
| B6 | 1 |
| B7 | 1 |

Biological target: T13, GST-NeDLG PDZ domains 1, 2, Q92796
Test: G' assay

| Binder | Classification [A450 class] |
| --- | --- |
| B1 | 5 |
| B3 | 5 |
| B9 | 5 |

Biological target: GST-PSD95 PDZ domains 1, 2, 3 (Homo sapiens), P78352
Test: G' assay

Sequence of GST-PSD95 PDZ domains 1, 2, 3 (Homo sapiens), P78352 (P78352 62-395): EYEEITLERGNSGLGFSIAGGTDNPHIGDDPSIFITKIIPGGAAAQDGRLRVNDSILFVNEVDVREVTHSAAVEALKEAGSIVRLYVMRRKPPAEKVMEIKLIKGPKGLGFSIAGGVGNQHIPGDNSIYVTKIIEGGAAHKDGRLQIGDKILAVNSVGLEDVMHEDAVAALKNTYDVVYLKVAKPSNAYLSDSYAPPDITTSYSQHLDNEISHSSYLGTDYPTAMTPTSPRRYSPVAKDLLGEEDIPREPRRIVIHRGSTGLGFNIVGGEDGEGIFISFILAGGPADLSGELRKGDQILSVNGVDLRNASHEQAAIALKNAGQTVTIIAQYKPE

| Binder | Classification [A450 class] |
| --- | --- |
| B1 | 5 |
| B3 | 5 |
| B6 | 2 |
| B9 | 5 |

Biological target: T14, GST-PTPL1 PDZ domain 4 (Homo sapiens …)
Test: G' assay

| Binder | Classification [A450 class] |
| --- | --- |
| B4 | 5 |
| B5 | 5 |
| B6 | 1 |
| B7 | 2 |
| B9 | 4 |

Biological target: GST-TAX IP2 PDZ domain 1 [GST: P08515]
Test: G' assay

Sequence of GST-TAX IP2 PDZ domain 1 [GST: P08515] (P08515 whole entry, the tested form may be a part): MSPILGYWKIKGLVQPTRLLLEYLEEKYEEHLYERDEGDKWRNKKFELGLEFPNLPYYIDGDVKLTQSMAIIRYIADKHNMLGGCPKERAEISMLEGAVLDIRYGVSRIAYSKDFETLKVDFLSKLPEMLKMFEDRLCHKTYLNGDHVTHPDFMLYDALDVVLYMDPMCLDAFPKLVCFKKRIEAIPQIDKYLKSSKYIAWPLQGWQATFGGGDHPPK

| Binder | Classification [A450 class] |
| --- | --- |
| B1 | 2 |
| B2 | 5 |
| B3 | 4 |

Biological target: T15, GST-ZO-3 PDZ domain 3 (Homo sapiens …)
Test: G' assay

| Binder | Classification [A450 class] |
| --- | --- |
| B4 | 5 |
| B5 | 1 |
| B6 | 3 |
| B7 | 1 |
